Here are results for 2 molecules from PMC8902820.

One test concerns the target FcγRIIA H131 (SPR assay) (UniProt P12318). Put plainly: SPR; FcγRIIA, FcγRIIB, FcγRIIIA; KD determined by the analyte concentration at which half of the ligands are occupied at equilibrium. In general terms: Surface plasmon resonance follows binding to a sensor surface in real time, without labels.
A further test deals with FcγRIIB (SPR assay) (UniProt P31994). Described as above.
The target of a further test is FcγRI (SPR assay) (UniProt P12314). Put plainly: SPR; FcγRI; KD calculated from the ratio of the kinetic constants (KD = koff/kon).
The target in a further test is FcγRIIIA V158. Put plainly: SPR; FcγRIIA, FcγRIIB, FcγRIIIA; KD determined by the analyte concentration at which half of the ligands are occupied at equilibrium.
The target of the next test is FcγRIIIA F158 (UniProt P08637). Described as above.
The target in the next test is FcγRIIA R131 (SPR assay). The test is described as above.

Sequence of UniProt P08637 (P08637 17-254): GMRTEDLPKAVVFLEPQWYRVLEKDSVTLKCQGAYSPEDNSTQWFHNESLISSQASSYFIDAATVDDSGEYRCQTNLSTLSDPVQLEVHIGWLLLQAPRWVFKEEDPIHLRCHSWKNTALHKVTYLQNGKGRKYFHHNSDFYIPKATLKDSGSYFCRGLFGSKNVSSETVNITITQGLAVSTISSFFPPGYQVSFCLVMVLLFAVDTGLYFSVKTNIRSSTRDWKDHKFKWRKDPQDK
Sequence of UniProt P12314 (P12314 16-374): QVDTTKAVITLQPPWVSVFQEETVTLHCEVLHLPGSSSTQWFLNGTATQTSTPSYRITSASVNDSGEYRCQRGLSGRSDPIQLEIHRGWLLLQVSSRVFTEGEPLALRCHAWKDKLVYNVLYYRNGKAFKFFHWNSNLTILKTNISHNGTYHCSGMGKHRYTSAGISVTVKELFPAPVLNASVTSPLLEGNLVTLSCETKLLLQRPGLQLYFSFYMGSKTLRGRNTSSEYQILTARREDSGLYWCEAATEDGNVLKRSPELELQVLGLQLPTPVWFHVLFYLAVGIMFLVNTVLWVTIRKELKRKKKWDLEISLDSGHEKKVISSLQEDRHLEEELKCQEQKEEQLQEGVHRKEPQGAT
Sequence of UniProt P12318 (P12318 34-317): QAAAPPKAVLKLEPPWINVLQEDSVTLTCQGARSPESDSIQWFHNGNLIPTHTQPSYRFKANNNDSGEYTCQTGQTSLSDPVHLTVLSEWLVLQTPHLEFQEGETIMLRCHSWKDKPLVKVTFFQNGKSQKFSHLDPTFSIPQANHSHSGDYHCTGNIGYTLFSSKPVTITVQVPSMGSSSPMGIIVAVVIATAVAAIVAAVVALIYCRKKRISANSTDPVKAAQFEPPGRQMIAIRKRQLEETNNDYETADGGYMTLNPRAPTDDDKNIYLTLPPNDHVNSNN
Sequence of UniProt P31994 (P31994 43-310): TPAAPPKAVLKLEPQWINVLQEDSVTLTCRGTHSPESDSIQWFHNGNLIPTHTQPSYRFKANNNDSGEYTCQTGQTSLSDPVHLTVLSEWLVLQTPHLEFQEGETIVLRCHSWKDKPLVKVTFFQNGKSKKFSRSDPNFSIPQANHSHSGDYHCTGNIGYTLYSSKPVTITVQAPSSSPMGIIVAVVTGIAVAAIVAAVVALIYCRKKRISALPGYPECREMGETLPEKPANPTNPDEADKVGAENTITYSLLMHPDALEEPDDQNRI

What is called Kd is the free concentration of one partner at which half of the binding sites on the other are occupied at equilibrium, for simple one-to-one binding. For the molecule “Ociperlimab (BGB-A1217), humanized IgG1 anti-human TIGIT antibody with wild-type IgG1 Fc”, the equilibrium dissociation constant (Kd) with FcγRIIA H131 (SPR assay) was found to be 965 nM; with FcγRIIB (SPR assay), 2840 nM.

B1: Ociperlimab (BGB-A1217), humanized IgG1 anti-human TIGIT antibody with wild-type IgG1 Fc (antibody, V domains shown)
VH: EVQLVESGGGLVQPGGSLRLSCAASGFTFSDYYMYWVRQAPGKGLEWVAYITKGGGSTYYPDSVKGRFTISRDNAKNTLYLQMNSLRAEDTAVYYCARQTNYDFTMDYWGQGTLVTVSS
VL: EIVMTQSPATLSVSPGERATLSCKASQDVGTSVAWYQQKPGQAPRLLIYWASARHTGIPARFSGSGSGTEFTLTISSLQSEDFAVYYCQQYSSYPLTFGGGTKVEIK
For B1, the Kd in the test with FcγRI (SPR assay) is 0.0406 nM; in the test with FcγRIIIA V158, 555 nM; in the test with FcγRIIIA F158 it was 2180 nM; with FcγRIIA R131 (SPR assay), 1020 nM.
